Data reported in a protein production outcome set (Wang et al. 2014).

Test: label from the status in PepcDB records
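Note: failed if final PepcDB status was selected cloned or expressed and not failed if soluble or beyond.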

| Sequence | protein production |
| --- | --- |
| MTPVLSLDMEDPIRFIDENGSFEVVKVGHNLAIHGKKIFDELAKRNLKIILDLKFCDIPSTVERSIKSWDHPAIIGFTVHSCAGYESVERALSATDKHVFVVVKLTSMEGSLEDYMDRIEKLNKLGCDFVLPGPWAKALREKIKGKILVPGIRMEVKADDQKDVVTLEEMKGIANFAVLGREIYLSENPREKIKRIKEMRL | not failed |
| MTYNKIMSAAESMEDGIEDMENNLESWGDDMNEYFGDEYEKAETISLDGIKNFFLKAEVGEVKIEISDRADEASYKIQRINPKYFDVEKKGDTISFEDNTPSKFFKNLGFNFKNNSPKIYISLPRNIVFNNFEIKSGVGELDIHDINVEKFNLSAGVGEVNIYDAKISKDAEIKAGVGEVNFKDSTVTNMDIKSGVGSFSFSGTALGKTSVKGGIGEVDLKINGSEKDYDFDVSAGLGEVIINGKKSKTFLADRQKSGSIAQNSITVKGGIGSISIRFKNLEHHHHHH | failed |
| NYDPFVRHSVTVKADRKTAFKTFLEGFPEWWPNNFRTTKVGAPLGVDKKGGRWYEIDEQGEEHTFGLIRKVDEPDTLVIGWRLNGFGRIDPDNSSEFTVTFVADGQKKTRVDVEHTHFDRMGTKHAKRVRNGMDKGWPTILQSFQDKIDEEGAKK | not failed |
| MGCFASRPNDTGGNRRKPTSIGDVSVYVPGLRIPKPVEFSQSLGDQLPKTLVERLTALRTRIVVMANQEGPTITRTRRKTQHGGSTLADLHHALEDYIPVLLGLTKDGSHLQFKVQFNWVNQEDEEEETAMSNVWYEILSVLHLMAMLQMSQANLLLLPRGSSDGYHPKISEENRRASIDIFLKAAGYLDCAVKHVLPHFSTEQRRSLPIDLAEGALRALCLQALGQGVDIQLGMAIDSAKATLAVKRRLSCEMVKYWQQAQDNLMNLPLANGWGEKHMLFVKWKYVEAKAAAYYYHGLILDEGNTEKSHGMAVAALQAADECLKESKKASEAFNTSSPTSRTPSLFGTMKYLSEKIPKETSSKVRINRDLYSYEKIMETAPTLPDFALALKPDEYQLPSVDASWSEASLRTKNTSNHI | not failed |
| MKQRIPTLLAGACLAIPLHALGAADLLVVNARIFTANPQQPFAEALAVEDGRILAVGDEAGLRALADGDSQVVDLGGKRLMPGLIDTHSHAVFGGLELAGADMGNEQVGLDELERRLRAWRDNGKARHGDMLNVSGMHTAYWSQVKDFRARFDHGEWADQPLAFIGSDHHTGWANAAMLKRAGIDAARVRALPEEQRNTIGHDADATPNGFLADAGLDAVLAVLPAPSAEQMLEAGRSAVRYSNSLGLTAWMDPAANGSPGDALFSLRPDENTVGVLPVYHRLAKGGELSAHVAALLVANPRSRPTDLEVLDKVRQRFLGSPNLTLPGIKVFADGVPEYPAQTAALLEPYRNSRKTGELLIDPAHFGELVSAADARGWLVHVHAIGDRAVREALNGMQQARRDRDSGIAHSITHLQLVNPKEFERFRPLGVIASMQLYWAAADETTVDLMKPYISAFAYRYQYPAHSLLSKGATIAGASDWPVSSLSPWKAIQQAVTRKGPQGVLNAGERLDRQTMFYAYTRNAARTIGLEHRIGSLEPGKQADFIVLDRDVFEVPETQLGETKVLKTWFAGKPVYSSEG | failed |
| VIKFSSEDCGTCHKMSHYDANVAEELGAEFVSVMLQDTEAYRKYRKVLLKQYPNKEGMGWPTYLLVTDPEGDFTIHGELKGGMPKGEFRTRLGALLA | failed |
| MITLTTDFGLKGPYVGEMKVAMLRINPNAKIVDVTHSVTRHSILEGSFVMEQVVKYSPKGTVHVGVIDPGVGTERRAIVIEGDQYLVVPDNGLATLPLKHIKVKSVYEIIPDKIRKFTGWEISSTFHGRDIFGPAGALIEKGIHPEEFGREIPVDSIVKLNVEPRKEGDVWILKVIYIDDFGNVILNLENYEKPRTVELLDFNLRLPYLETYGLVEKGEMLALPGSHDYLEIAVNMGSAAERLNVKVGDELRVRLL | not failed |
| MNKKKKKRTPKPINLNELEEKINILNFMKNDFEIVLQKENEKHSEVSIQYTNKEESSTLERERINIILKELIISCNEKKEHLNNYIKVAKDIIQKNNETIEKEKNDIDKLILQKDEQIKDVEKKIVIVQNFYKDINKGIIQLINNLEVYLRNKMNINIDIKKMNDKTIELTNVQKLNKQQECKENEFKNILYMSIDKYNEQISIIRTFIKKIKLKQEIDVIKEDNIINTNDDILREPSNNTNEQKEQSHKYDYSHDENENNNFRKYEMINIEEENDKENNVKGDNKLIINKNNVDSFDEDDSYDEDDSCDEDNSCDEDNSCGEVNSCGEDDSYDEDDSYDEDDSYDEDNSYDEDNSYDEDNRCGEKLEKEQLHNLQDDKKNYTLKKNINETLLSSLDDDESKFSSSNSDTTKSFEVYKNKEKDKDKEIYNYLYSEEETYEQKKNNESSNSDDDDNKKEHFIKKFTTLKTNKNILNEDVQFLMDKIKKIDYDYISYFEKKLKYK | failed |
| MNKQLRNNMIVLLFAVILSLILNVAHILLPFMFGPIIASVICVRVFRLEIEWPFWLSQIGLVLLGVQIGSTFTKNVILDIKDDWLTIILITVMLLALALVIAFFFKKIAKVNTETAILSVIPGALSQMLIMAEENKRANIMVVSLTQTSRIIFVVILVPFISYFFRDNGSNGSLEKATTKVLTDAVSIPQILLLALAVFIVYIIMSKINFPTKQLLAPIIVLISWNLITGVTFTLDNYIIASAQVIYMIRIGLQIAKLLDQMKGRIAVAIAFQNVLLILLAFIMVLLISMVSNHSVNELFLGAAPGGMSQIVLVAIETGADVALISSYHIFRIFFILFLIAPLLGHLLKYIDRSHS | failed |
| MSFDPIYFLTPIIVMVFSFGMVYKLVKSIKVLMFSALAYFIAIVLKVLVQFFTLGYLASINSLAVLGLYYGLQTSIFEVGLAYVFALLGKLKNGWGYGVSLAMWENGVLISIPTLFIYIAYYFFPLILSTPSQLEYPITQALPLIGLSILERVSSLLIHSSWGYLSVLSVITGRKRLILVAFPMGFVDFLVPFEKYLGILTFEFIFFCIGLICLVMAWSLGKYYRSTSSKDT | failed |
| LAPPRHLGFSDVSHDAARVFWEGAPRPVRLVRVTYVSSEGGHSGQTEAPGNATSAMLGPLSSSTTYTVRVTCLYPGGGSSTLTGRVTTKKAPSPS | not failed |
| KKAVINDSNTPLHLLQPAYQGTYGDLTPEQVKKDIDRVFAYIDKETPARVVDKNTGKVITDYTAMGDEAQLERGAFRLASYEWGVTYSALIAAAETTGDKRYTDYVQNRFRFLAEVAPHFKRVYEEKGKTDSQLLQILTPHALDDAGAVCTAMIKLRLKDESLPVDGLIQNYFDFIINKEYRLADGTFARNRPQRNTLWLDDMFMGIPAVAQMSRYDKEAKNKYLAEAVKQFLQFADRMFIPEKGLYRHGWVESSTDHPAFCWARANGWALLTACELLDVLPEDYPQRPKVMDYFRAHVRGVTALQSGEGFWHQLLDCNDSYLETSATAIYVYCLAHAINKGWIDAIAYGPVAQLGWHAVAGKINEEGQVEGTCVGTGMAFDPAFYYYRPVNVYAAHGYGPVLWAGAEMIRLLNTQHPQMNDSAVQYYQEKQKTTAPIFAVDSE | not failed |
| MKKTPIVFILFLLNFICLGQADTTMLLSDKAVQIEGTDAVNDLYNFKFEKAEGYFLYLKSQHPNHPMPYFLMALSNWWKMMPYIDNNDYTNAYEKEFLYYIDQTIEKGEEQFKADDQNVEAAFFLCAAHGFKGRYFSENKGYVKAAFAGKSALHYLTYTKGKGDLNPEFLFGESIFNYYAEWIKEEYPLLKPLVGLFPKGDKAVGLAQLKECATNAFYTRIEAQYFLLRIYTNEENNSRAAYPYAKYLSENFPDNPYFQRVYARLSFELGYYAQCEKICYDINYKVNIEMPGYEVNTGRYAAYFLGRILYEKSDLEKSKFYLLKTAAFAESGNMNKMGYSLSAYYYLGMIEVKSQNYSEAEKFFLKVIDLGEDKQDNSAVYNYSYASYQLASVYEKQQNTKRAESFYKDAIKRVKKLDEKSYASTIKEITANSEAGLERLKQPKK | failed |
| LNKEGEVERLLGINMDMTEVKQLNEALFQEKERLHITLDSIGEAVVCIDMAMKITFMNPVAEKMSGWTQEEALGVPLLTVLHITFGDNGPLMENIYSADTSRSAIEQDVVLHCRSGGSYDVHYSITPLSTLD | failed |
